# The supplement of paper PMC9170038
# Test system: MS2 coat protein
# Assay: apparent KD of MS2 coat protein; designed switch direction (-1 OFF switch, 1 ON switch): 1; higher = weaker reporter binding
# Summary of the method: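 SNAP-549-labelled MS2 coat protein was titrated, doubling from 0.7 or 1.5 nM to 3 µM, over designed RNA switches transcribed on Illumina chips by stalled E. coli RNA polymerase. Runs were done without input, with 200 uM small-molecule ligand, or with an oligonucleotide input. Apparent KD is the per-design median over clusters of curve-fitted normalised fluorescence.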
# [1] = input ligand: microRNA oligo, concentration not stated
# [2] = Eterna round: R95, input ligand: FMN 200 uM
# [3] = Eterna round: R95, input ligand: microRNA oligo, concentration not stated
# [4] = Eterna round: R95, input ligand: none
Sequence,apparent KD of MS2 coat protein (input ligand: FMN 200 uM) [µM],apparent KD of MS2 coat protein [1] [µM],apparent KD of MS2 coat protein (input ligand: none) [µM],apparent KD of MS2 coat protein [2] [µM],apparent KD of MS2 coat protein [3] [µM],apparent KD of MS2 coat protein [4] [µM]
"AGCUAUUAAUCAGGAUAUAGGGACAUGAGGAUCACCCAUGUAUAAAUGAUGAAAUGUGGUCACCUCUAGAAGGGAUUACUAACA [SameState NG2 #43] (Eterna round: R96, puzzle: Same State NG 2)",0.0427,0.029,0.0404,,,
"AGCUAUUAAUCAGGAUAUGGUGACAUGAGGAUCACCCAUGUAUAGAUGAUUAAAUGUGGUCUAUACCAGAAGGGAUUACUAACA [SameState NG2 #52] (Eterna round: R96, puzzle: Same State NG 2)",0.0555,0.247,0.356,,,
"AGCUAUUACGAAGGAUAUUGUGACAUGAGGAUCACCCAUGUCUUCAUGAUUUAUUGUGAUCACGUCGAGAAGGUUGUACUAACA [SameState NG2 #28] (Eterna round: R96, puzzle: Same State NG 2)",0.0505,0.0563,0.0576,,,
"AGCUAUUACGAAGGAUAUUGUGACAUGAGGAUCACCCAUGUUUGCAUGAUUAAUUGUGAUCACGUCGAGAAGGUUGUACUAACA [SameState NG2 #31] (Eterna round: R96, puzzle: Same State NG 2)",0.0262,0.0209,0.0295,,,
"AGCUAUUACGAAGGAUAUUGUGACAUGAGGAUCACCCAUGUUUUCAUGAUUAAUUGUGAUCACGUCGAGAAGGUUGUACUAACA [SameState NG2 #30] (Eterna round: R96, puzzle: Same State NG 2)",,0.043,,,,
AGCUUACAUGAGGAUCACCCAUGUAGGAAGUACAUAGGAUAUCACCAAAUGGUCGACAUGUGAGAAGGGUGGAAGU [Usarle] (puzzle: Same State 1),,,,0.0162,0.0194,0.0135
"AGCUUUUAAUUAGGAUAUGGUCACAUGAGGAUCACCCAUGUAACGAUGAUACGAUGUGGUCAAGACUAGAAGGGAUCGCUAACA [SameState NG2 #70] (Eterna round: R96, puzzle: Same State NG 2)",0.15,0.0829,0.113,,,
AGGAAGGAGACUGAGGAUAUCGUUGAGAGGACAUGAGGAUCACCCAUGUGUAUAGGAUUGGAGAACGAGAAGGCAGAGGAGUGGA [JR_SS2_Sub046] (puzzle: Same State 2),,,,0.05,0.0485,0.0724
AGGCAAGCUUUUUGCUUGUAUGCAGGAGAACAUGAGGAUCACCCAUGUCUUGGAGGUGUUGAAAAUAAGAGAAUGCA [JR_SHM208A_Sub006] (puzzle: Sensor for hsa-mir-208a),,,,0.0639,0.0728,0.0939
"AGGCCACCGGGAGGAUAUGGCACCUAUAUGGUGCCAGAAGGCUCAACAUGAGGAUCACCCAUGUGGGUGGGUUCUAAUGAACAA [Fiskers NG1 - 1] (Eterna round: R96, puzzle: Same State NG 1)",0.0691,0.0417,0.0467,,,
"AGGCUCAGAGCAGGAUAUAUGCGAUCACAUGAGGAUCACCCAUGUCUCGAGCUUCGGCUCGAGGCAUAGAAGGGCUCUGAGCCA [SSNG2/4-B1] (Eterna round: R96, puzzle: Same State NG 2)",0.0189,0.0286,0.0518,,,
"AGGGAGGAAGCUGAGGAUAUCGUAAGGAGGACAUGAGGAUCACCCAUGUGUGUGGAAUUGGAGGACGAGAAGGCAGAGGAGUGGG [JR_SS2_Sub054] (Eterna round: R96, puzzle: Same State 2)",0.0405,0.035,0.0384,,,
AGGGAGGAAGCUGAGGAUAUCGUAAGGAGGACAUGAGGAUCACCCAUGUGUGUGGAAUUGGAGGACGAGAAGGCAGAGGAGUGGG [JR_SS2_Sub054] (puzzle: Same State 2),,,,0.0329,0.0271,0.0289
AGGUAACAUGAGGAUCACCCAUGUAAGGUGAACGUAGGAUAUCGAGGAGGUAGAGUAGGUCGAGAAGGACGAGAAG [JR_SS1_Sub094] (puzzle: Same State 1),,,,0.139,0.1,0.127
"AGGUAACAUGAGGAUCACCCAUGUACCAAUAAUGCAGGAUAUCGACACGAAAAUACGUGUCGAGAAGGGCAUGAAA [SS1 MT 22] (Eterna round: R96, puzzle: Same State 1)",0.0103,0.00909,0.0125,,,
"AGGUACAACGGAGGAUAUAAUAGUCUAUAGACGUUAGAAGGCCGGGCCUUCACAUGAGGAUCACCCAUGUCUCUGGAGGCGCCU [Eternabot solution 11] (Eterna round: R96, puzzle: Same State NG 1)",,0.0168,,,,
"AGUAGUGUAACAUGAGGAUCACCCAUGUAUGUAUAUGUAACCUAGGAUAUGGAGGUUAUGUUUGACCAGAAGGAGGAUUGUUUA [JR_SSNG3_Sub042] (Eterna round: R96, puzzle: Same State NG 3)",0.0297,0.0287,0.0337,,,
"AGUAGUUUAACAUGAGGAUCACCCAUGUAUCUAUCUGUAACCUAGGAUAUGGGCGUUGUAUUUAACCAGAAGGAGGAUCGUUUA [JR_SSNG3_Sub047] (Eterna round: R96, puzzle: Same State NG 3)",0.0178,0.0225,0.029,,,
"AGUAGUUUAACAUGAGGAUCACCCAUGUAUGUAUAUGUAACCUAGGAUAUGGAGGUUUUAUUUAACCAGAAGGAGGAUUGUUUA [JR_SSNG3_Sub043] (Eterna round: R96, puzzle: Same State NG 3)",0.0183,0.0158,0.0207,,,
AGUAUACAUGAGGAUCACCCAUGUCAACGUAGUCGAGGAUAUGGGCAGCCGUGAGGCGUACUAGAAGGCGAAGAGA [Mat - Same State 1 - Mod of JL - D7] (puzzle: Same State 1),,,,0.0489,0.135,0.101
"AGUCCACGCUGACGUGGACAAAAGCAUGUACAUGAGGAUCACCCAUGUCAUGUACAAGCUUUUUGCUCGUCUUAAAA [Mat - hsa-mir-208a - Mod of JL - D17] (Eterna round: R96, puzzle: Sensor for hsa-mir-208a)",0.346,0.0132,0.447,,,
AGUCCACGCUGACGUGGACAAAAGCAUGUACAUGAGGAUCACCCAUGUCAUGUACAAGCUUUUUGCUCGUCUUAAAA [Mat - hsa-mir-208a - Mod of JL - D17] (puzzle: Sensor for hsa-mir-208a),,,,0.543,0.0147,1.68
AGUCCACGCUGACGUGGACAAAAGCAUGUACAUGAGGAUCACCCAUGUCAUGUACAAGCUUUUUGCUCGUCUUAAUA [Mat - hsa-mir-208a - Mod of JL - D43] (puzzle: Sensor for hsa-mir-208a),,,,0.478,0.0149,0.549
AGUCCAGCCAGAGCUGGACAAAAGCAUGUACAUGAGGAUCACCCAUGUUCAUGUACAAGCUUUUUGCUCGUCUUAAG [Mat - hsa-mir-208a - Mod of JL - 64] (puzzle: Sensor for hsa-mir-208a),,,,0.583,0.0159,0.547
AGUCCAGCCUGAGCUGGACAAAAGCAUGUACAUGAGGAUCACCCAUGUCAUGUACAAGCUUAUUGCUCGUCUUAAUA [Mat - hsa-mir-208a - Mod of JL - D40] (puzzle: Sensor for hsa-mir-208a),,,,0.226,0.0167,0.251
AGUCCAGCCUGAGCUGGACAAAAGCAUGUACAUGAGGAUCACCCAUGUCAUGUACAAGCUUUUAGCUCGUCUUAAAA [Mat - hsa-mir-208a - Mod of JL - D14] (puzzle: Sensor for hsa-mir-208a),,,,0.455,0.0146,0.501
AGUCCAGCCUGAGCUGGACAAAAGCAUGUACAUGAGGAUCACCCAUGUCAUGUACAAGCUUUUUGCUCGUAUUAAAA [Mat - hsa-mir-208a - Mod of JL - D9] (puzzle: Sensor for hsa-mir-208a),,,,0.362,0.0154,0.574
AGUCCAGCCUGAGCUGGACAAAAGCAUGUACAUGAGGAUCACCCAUGUCAUGUACAAGCUUUUUGCUCGUCUAAAAG [Mat - hsa-mir-208a - Mod of JL - D7] (puzzle: Sensor for hsa-mir-208a),,,,0.272,0.0176,0.406
"AGUCCAGCCUGAGCUGGACAAAAGCAUGUACAUGAGGAUCACCCAUGUCAUGUACAAGCUUUUUGCUCGUCUUAAGA [Mat - hsa-mir-208a - Mod of JL - D21] (Eterna round: R96, puzzle: Sensor for hsa-mir-208a)",0.806,0.0162,0.84,,,
AGUCCAGCCUGAGCUGGACAAAAGCAUGUACAUGAGGAUCACCCAUGUCAUGUACAAGCUUUUUGCUCGUCUUAAGA [Mat - hsa-mir-208a - Mod of JL - D21] (puzzle: Sensor for hsa-mir-208a),,,,0.561,0.0165,0.933
